Source: IntAct's records for PubMed 19703395

B1: Transposon Tn7 transposition protein TnsE (Escherichia coli), P05845 (parent)
chain: MVRLATFNDNVQVVHIGHLFRNSGHKEWRIFVWFNPMQERKWTRFTHLPLLSRAKVVNSTTKQINKADRVIEFEASDLQRAKIIDFPNLSSFASVRNKDGAQSSFIYEAETPYSKTRYHIPQLELARSLFLINSYFCRSCLSSTALQQEFDVQYEVERDHLEIRILPSSSFPKGALEQSAVVQLLVWLFSDQDVMDSYESIFRHYQQNREIKNGVESWCFSFDPPPMQGWKLHVKGRSSNEDKDYLVEEIVGLEINAMLPSTTAISHASFQEKEAGDGSTQHIAVSTESVVDDEHLQLDDEETANIDTDTRVIEAEPTWISFSRPSRIEKSRRARKSSQTILEKEEATTSENSNLVSTDEPHLGGVLAAADVGGKQDATNYNSIFANRFAAFDELLSILKTKFACRVLFEETLVLPKVGRSRLHLCKDGSPRVIKAVGVQRNGSEFVLLEVDASDGVKMLSTKVLSGVDSETWRNDFEKIRRGVVKSSLNWPNSLFDQLYGQDGHRGVNHPKGLGELQVSREDMEGWAERVVREQFTH

Variants of: B1
Conditions: with dpo3b_ecoli dnaN

Effect of a mutation on the interaction, decreasing interaction:
L131A
Q122A
L123A
L125A
F130A
L129A
